Measurements as given in publication PMC7666158.

Assays:
[1] = molecular target: JNK1-dc20 (JNK1 with the C-terminal 20 residues truncated) (human) (UniProt P45983); test: fluorescence polarisation; competitive: 50 nM CF-evJIP with JNK1 at ~60–80% complex, titrated with unlabeled competitor; 20 mM Tris pH 8.0, 100 mM NaCl, 0.05% Brij35P, 2 mM TCEP; 384-well plates
[2] = molecular target: CF-evJIP (carboxyfluorescein-labeled reporter docking peptide); test: fluorescence polarisation; direct titration: 50 nM CF-evJIP, JNK1 concentration increased; 20 mM Tris pH 8.0, 100 mM NaCl, 0.05% Brij35P, 2 mM TCEP; 384-well plates
[3] = molecular target: pp-p38 (double-phosphorylated, activated p38α) (human) (UniProt Q16539); test: competition in an in vitro kinase assay; 2 nM pp-p38, 2 µM MBP-ATF2 substrate, 3-fold dilution series of peptide from 1 mM; phospho-ATF2 dot blot; Ki = IC50/(1 + S/KM), KM 17.3 µM

Ki [3] [µM] | Substance | further results
– | ATF2(19–100) Q34R/H47R (mutant construct of the FP assay of Fig. 2b) (from UniProt P15336-1 19-100) (domain or fragment) | fold stronger binding than the wild type [1]: 100 fold
– | JNK1-dc20 (JNK1 where the C-terminal 20 residues are truncated) (from UniProt P45983 1-364) (enzyme) | Kd [2]: 0.47 µM
– | MBP-c-Jun(1–78) K35E (domain or fragment) | fold decrease in binding against the wild type [1]: 10 fold
7.5 | SPFENEF peptide (ATF2 83–102) S90N (from UniProt P15336-1 83-102) | –
820 | SPFENEF peptide (ATF2 83–102) phospho-S90 | –
33.6 | SPFENEF peptide (ATF2 83–102), WT | –
